US20250263469A1 (HOSPITAL FOR SICK CHILDREN, published 2025)
Numbering of substitutions follows the chain as printed.

B1: mAb 46 (antibody, V domains shown)
VH: EVQLLESGGGLVQPGRSLRLSCAASGFTFSSYAMSWVRQAPGKGLEWVSTIYSGGSTYYADSVKGRFTISRDNSKNTLYLQMNSLRAEDTAVYYCARGDSRDAFDIWGQGTMVTVSS
VL: DIQMTQSPSSLSASVGDRVTITCRASQSISSWLAWYQQKPGKAPKLLIYDASNLETGVPSRFSGSGSGTDFTLTISSLQPEDFATYYCQQSYSTPFTFGPGTKVDIKR
B2: mAb 324 (antibody, V domains shown)
VH: QVQLVQSGAEVKKPGASVKVSCKASGGTFNNYGISWVRQAPGQGLEWMGWMNPNSGNTGYAQKFQGRVTMTRDTSTSTVYMELSSLRSEDTAVYYCARVGDYGDYIVSPFDLWGRGTLVTVSS
VL: B1 VL with S30T, S31T, W32Y, A34N, F96P, P100Q, D105E
B3: mAb 236 (antibody, V domains shown)
VH: QVQLVQSGAEVKKPGASVKVSCKASGGTFTSYGINWVRQAPGQGLEWMGWMNPNSGNTGYAQKFQGRVTMTRDTSTSTVYMELSSLRSEDTAVYYCASRGIQLLPRGMDVWGQGTTVTVSS
VL: not shown
B4: mAb 52 (antibody, V domains shown)
VH: QVQLVQSGAEVKKPGSSVKVSCKASGYTFTSYGISWVRQAPGQGLEWMGGIIPMFGTTNYAQKFQGRVTITADKSTSTAYMELSSLRSEDTAVYYCARDRGDTIDYWGQGTLVTVSS
VL: DIQMTQSPSSLSASVGDRVTITCRASQGISNNLNWYQQKPGKAPKLLIYAASSLESGVPSRFSGSGSGTDFTLTISSLQPEDFATYYCQQGNGFPLTFGPGTKVDIKR
B5: mAb 82 (antibody, V domains shown)
VH: QVQLVQSGAEVKKPGASVKVSCKASGGSFSTSAFYWVRQAPGQGLEWMGWINPYTGGTNYAQKFQGRVTMTRDTSTSTVYMELSSLRSEDTAVYYCARSRALYGSGSYFDYWGQGTLVTVSS
VL: B1 VL with S28V, S31N, W32Y, Y92F, T94P, F96P, P100Q, K103R, V104L, D105E

Molecular target: Spike of authentic SARS-CoV-2/SB2-P4-PB virus (SARS-CoV-2, UniProt P0DTC2 14-1273)
Assay: cell-based or functional assay

Row | Binder | IC50 SARS-CoV2/SB2-P4-PB (authentic virus), IgG
1 | B1 | 19 µg/mL
2 | B2 | 21 µg/mL
3 | B3 | 5.5 µg/mL
4 | B4 | 6.2 µg/mL

Molecular target: SARS-CoV-2 Spike N439K on pseudotyped virus (SARS-CoV-2, UniProt P0DTC2 14-1273)
Assay: cell-based or functional assay

Row | Binder | Potency change vs WT PsV
5 | B1 | 4.1 fold
6 | B2 | -1 fold
7 | B3 | 2.1 fold
8 | B4 | 1.8 fold
9 | B5 | 1.1 fold

Molecular target: SARS-CoV-2 Spike D614G on pseudotyped virus (SARS-CoV-2, UniProt P0DTC2 14-1273)
Assay: cell-based or functional assay

Row | Binder | Potency change vs WT PsV
10 | B1 | 1.9 fold
11 | B2 | 2.6 fold
12 | B3 | 0.7 fold
13 | B4 | 0.4 fold

Molecular target: SARS-CoV-2 Spike L452R on pseudotyped virus (SARS-CoV-2, UniProt P0DTC2 14-1273)
Assay: cell-based or functional assay

Row | Binder | IC50 (PsV neutralisation) | Potency change vs WT PsV
14 | B1 | > 100 µg/mL | –
15 | B2 | – | 0.8 fold
16 | B3 | – | -0.6 fold
17 | B4 | > 100 µg/mL | –
18 | B5 | – | -8.1 fold

Molecular target: SARS-CoV-2 Spike A475V on pseudotyped virus (SARS-CoV-2, UniProt P0DTC2 14-1273)
Assay: cell-based or functional assay

Row | Binder | Potency change vs WT PsV
19 | B1 | 1.9 fold
20 | B2 | -0.6 fold
21 | B3 | 1.4 fold
22 | B4 | 1.1 fold
23 | B5 | -5.7 fold

Molecular target: SARS-CoV-2 Spike V483A on pseudotyped virus (SARS-CoV-2, UniProt P0DTC2 14-1273)
Assay: cell-based or functional assay

Row | Binder | Potency change vs WT PsV
24 | B1 | 2 fold
25 | B2 | -0.4 fold
26 | B3 | 1.9 fold
27 | B5 | 0.2 fold

Molecular target: T1, SARS-CoV-2 receptor binding domain (RBD), wild type (BEI NR52309) (SARS-CoV-2, UniProt P0DTC2 319-541)
Assay: BLI competition on His-tagged RBD, signal of the 2nd Ab after 1st Ab 236

Row | Binder | RBD binding
28 | B1 | 1.7
29 | B2 | 0.3
30 | B3 | 0.3
31 | B4 | 1.5

Molecular target: T1, SARS-CoV-2 receptor binding domain …
Assay: BLI competition on His-tagged RBD, signal of the 2nd Ab after 1st Ab 298

Row | Binder | RBD binding
32 | B1 | 1.7
33 | B4 | 1.4
34 | B5 | 0.5

Molecular target: T1, SARS-CoV-2 receptor binding domain …
Assay: BLI competition on His-tagged RBD, signal of the 2nd Ab after 1st Ab 324

Row | Binder | RBD binding
35 | B1 | 1.7
36 | B2 | 0.4
37 | B3 | 0.4
38 | B4 | 1.5
39 | B5 | 0.8
